Results on 40 sequences are retold here after the nanobody polyreactivity screen of Harvey et al. (2022).

The nature of the series: yeast display, Sf9 membrane polyspecificity reagent, FACS + sequencing; frameworks hold sequencing errors. The gist of the method: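 Synthetic nanobody libraries on Saccharomyces cerevisiae BJ5465 were galactose-induced for 36–48 hours, stained 1 hour at 4 °C with 10% biotinylated, detergent-solubilized Sf9 membrane reagent and enriched on streptavidin microbeads. FACS then separated cells into low and high (top ~1%) gates by anti-HA (expression) and streptavidin (reagent binding) fluorescence. Genes were colony-PCR amplified, MiSeq 2 × 250 sequenced and CDR-length filtered. A clone's polyreactivity label is that of its gate of origin.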
On to “QVQLVESGGGLVQAGGSLRLSCAASGFTFYWYDMGWDRQAPGKEREFVAAIVQSGGSTYYADSVKGRFSISRDNAKITVYLQMKSLKPEDTAVYYGAARYILWDGDSWTEFDYWGQGTQVTVSS”, for which the “polyreactivity (PSR sort gate)” value is reported as “low polyreactivity”.

Regarding “QVQLVESGGGLVQAGGSLRLSCAASGFTFYYNAMGWYRQAPGKERELVAAISSNGGSTYYADSVKGRFTISRDNAKNTVYLQMNSLKPEDTAVYYCAAYPKSSRWDFESWGQGTQVTVSS”, the “polyreactivity (PSR sort gate)” value is “low polyreactivity”.

“QVQLVESGGGLVQAGGSLRLSCAASGFTFYYNAMGWYRQAPGKERELVAGISGRGGTTYYADSVKGRFTISRDNAKNTVYLQMNSLKPEDTAVYYCAARKVRARSKFEYWGQGTQVTVSS”: the “polyreactivity (PSR sort gate)” value is “high polyreactivity”.

Regarding “QVQLVESGGGLVQAGGSLRLSCAASGFTFYYYAMGWSRQAPGKERELVAAISSAGGRTYYADSVKGRFTISRDNAKNTVYLQMNSLKPEDTAVYYCAATIKAYPTPLLGDYWGQGTQVTVSS”, the “polyreactivity (PSR sort gate)” value is “high polyreactivity”.

With “QVQLVESGGGLVQAGGSLRLSCAASGFTFYYYAMGWYRQAPGKERELVAAINWDGRTYYADSVKGRFTISRDNAKNTVYLQMNTLKPEDTAVYYCAAGYYLLTYRYDYWGQGTQVTVSS”, the “polyreactivity (PSR sort gate)” value was “low polyreactivity”.

In the case of “QVQLVESGGGLVQAGGSLRLSCAASGFTFYYYAMGWYRQAPGKERELVAAISSTGGSTYYADSVKGRFTISRDNAKNTVYLQMNSLKPEDSAVYYCNAAGYRYPGDYDYWGQGTQVTVSS”, the “polyreactivity (PSR sort gate)” value is “high polyreactivity”.

For the sequence “QVQLVESGGGLVQAGGSLRLSCAASGFTFYYYAMGWYRQAPGKERELVAAISTRDGNTYYADSVKGRFTISRDNAKNTVYLQMNSLKPEDTAVYYCAADYFRYYPYDYWGQGTQVTVSS”, the “polyreactivity (PSR sort gate)” value is reported as “low polyreactivity”.

On to “QVQLVESGGGLVQAGGSLRLSCAASGFTFYYYAMGWYRQAPGKERELVAGITGSGGRTYYADSVKGRFTISRDNAKNTVYLQMNSLKPEDTAVYYCNARSLWYDYWGQGTQVTVSS”, for which the “polyreactivity (PSR sort gate)” value was “high polyreactivity”.

Take “QVQLVESGGGLVQAGGSLRLSCAASGFTFYYYAMGWYRQAPGKERELVASISWRGGSTYYADSVKGRFTISRDNAKITVYLQMNSLKPEDTAVYYCAAQKRGSPGYRRDYWGQGTQVTVSS”: the “polyreactivity (PSR sort gate)” value is listed as “high polyreactivity”.

As for “QVQLVESGGGLVQAGGSLRLSCAASGFTFYYYAMGWYRQAPGKESDLVAAISWSGGTTYYADSVKGRFTISRDNAKNTVYFQMNSLKPEDPAVYYCAADIRDPGVPMDYWGQGTQVTVSS”, the “polyreactivity (PSR sort gate)” value is “low polyreactivity”.

With “QVQLVESGGGLVQAGGSLRLSCAASGFTFYYYTMGWYRQAPGKERELVAAITWRGGSTNYADSVKGRFTISRDNAKNTVYLQMNSLKPEDTAVYYCAAVTYWFWPGMDYWGQGTQVTVSS”, the “polyreactivity (PSR sort gate)” value is on record as “low polyreactivity”.

Regarding “QVQLVESGGGLVQAGGSLRLSCAASGFTIDGYAMGGYRQAPGKERELVAAISGGGSTYYADSVKGRFTISRDNAKNTVYLQMNSLKPEDTAVYYCAAARITRGRRYDYWGQGTQVTVSS”, the “polyreactivity (PSR sort gate)” value is listed as “high polyreactivity”.

As for “QVQLVESGGGLVQAGGSLRLSCAASGFTIDNYAMGWYRHSPGKEMEVVAAINWSGDRMYYADSVKGRFTFSRDNAKNTVYLQMNSLKPEDTAVYYCAAPASRSQGPFPGYDYWGQGTQVTVSS”, the “polyreactivity (PSR sort gate)” value is given as “high polyreactivity”.

“QVQLVESGGGLVQAGGSLRLSCAASGFTIDSNVMGWYRQAPGKDRELVAAITGDDTTYYADSVKGRFTISRDNAKNTVYLQMNSLKPEDTAVYYCAADETESLEYTAYDMYYWGQGTQVTVSS”: the “polyreactivity (PSR sort gate)” value was “low polyreactivity”.

Regarding “QVQLVESGGGLVQAGGSLRLSCAASGFTIESNAMGWYRQAPGKERELVAAISASGDSTYYADSVKGRFTISRDNAKNTVYLQMNSLKPEDTAVYYCAADRYYGGWRFDHWGQGTQVTVSS”, the “polyreactivity (PSR sort gate)” value is “low polyreactivity”.

Take “QVQLVESGGGLVQAGGSLRLSCAASGFTIIYNAMGWYSQAPGKERELVAAISSGGSTYYADSVKGRFTISRDNAKNTVYFQMNSLKPVDTAVYYCNADVGFFNSGYEDSDYWGQGTQVTVSS”: the “polyreactivity (PSR sort gate)” value is given as “low polyreactivity”.

As to “QVQLVESGGGLVQAGGSLRLSCAASGFTINGNAMGWYRQAPGKERELVAAITWRGGSTYYADSVKGRFTISRDNAKNTVYLQMNSLKPEDTAVYYCNVEGWYDYDYWGQGTQVTVSS”, the “polyreactivity (PSR sort gate)” value was “high polyreactivity”.

Regarding “QVQLVESGGGLVQAGGSLRLSCAASGFTININDMRGYRQAPGIDTDLVAALSWNVGNRYYADSVKGRFTISRDNAKNTVYLQMKSLKPEDTAVYYCAADRYIRWVEFDYWGQGTQVTVSS”, the “polyreactivity (PSR sort gate)” value is on record as “low polyreactivity”.

As to “QVQLVESGGGLVQAGGSLRLSCAASGFTIRAYVMGSYRQAPGKEREFVADISYRGGGTNYADSVKGRFTISRDNAKNTVYLQMNSLKPEDTAVYYCNARSGSSKSGYYYWGQGTQVTVSS”, the “polyreactivity (PSR sort gate)” value is “high polyreactivity”.

Consider “QVQLVESGGGLVQAGGSLRLSCAASGFTIRSYVMGWYRQAPGKEREFVAAISYRGGGTNYADSVKGRFTISRDNAKNTVYLQMNSLKPEDTAVYYCNALVYDQYGYYHYYLRNGGYYWGQGTQVTVSS”, for which the “polyreactivity (PSR sort gate)” value is on record as “high polyreactivity”.

Take “QVQLVESGGGLVQAGGSLRLSCAASGFTIRYYALGWYRQAPGKERELVAAISRGGSTTYADSVKGRFTISRDNAKNTVYLQMNSLKPEDTAVDYCAVYSKWSVTYDYWGQGTQVTVSS”: the “polyreactivity (PSR sort gate)” value is “high polyreactivity”.

“QVQLVESGGGLVQAGGSLRLSCAASGFTISQYAMGWYRQAPGKERELVAVISINGGSTYYADSVKGRFTISRDNAKNTVYLEKNSLKPEDTAVYYCAADDTDSEDYGYDYWGQGTQVTVSS”: the “polyreactivity (PSR sort gate)” value is “low polyreactivity”.

On to “QVQLVESGGGLVQAGGSLRLSCAASGFTITKYAMGWYRQAPGKERALVAAISRSAGSTYYADSVKGRFTISRDNAKHTVYLQMNSLKPEDTAVYYCNAYPKGRYAAAFPGMDYWGQGTQVTVSS”, for which the “polyreactivity (PSR sort gate)” value was “high polyreactivity”.

Consider “QVQLVESGGGLVQAGGSLRLSCAASGFTIVYYAMGWYRQAPGKERELVAAISATGGRTYYADSVKGRFTISRDNAKNTVYLQMNSLKPEDTAVYYCAVGLSGASSGMGYWGQGTQVTVSS”, for which the “polyreactivity (PSR sort gate)” value is “high polyreactivity”.

For “QVQLVESGGGLVQAGGSLRLSCAASGFTIWRYAMGWYRQAPGKERELVAAISRGGSTNYADSVKGRFTISRDNAKNTVYLQMNSLKPEDTAVYYCAASVQYRRLKKFYYWGQGTQVTVSS”, the “polyreactivity (PSR sort gate)” value is given as “high polyreactivity”.

For “QVQLVESGGGLVQAGGSLRLSCAASGFTIYHNAMGWYRQAPGKERELVAAISSSGDSTYYADSVKGRFTISRDNAKNTVYLQMNSLKPEDTAVYYCNDYFYYLSLYYYYWFNYDYWGQGTQVTVSS”, the “polyreactivity (PSR sort gate)” value is “low polyreactivity”.

Turning to “QVQLVESGGGLVQAGGSLRLSCAASGFTIYKYAMGWYRQPPGKERELVAAITGRGGSTNYADSVKGRFTISRDTAQNTVYLQMNILKPEDTAFYYCAARTPSYEMDYWGQGTQVTVSS”, the “polyreactivity (PSR sort gate)” value is listed as “high polyreactivity”.

For “QVQLVESGGGLVQAGGSLRLSCAASGFTIYLYTMGWYRQAPGKERELVATISWSGGSTYYADSVKGRFTISRDNAKNNVYLHMNSLKPEDTAVYYCAKAYNGRYTWRYDYWGQGTQVTVSS”, the “polyreactivity (PSR sort gate)” value is “high polyreactivity”.

For “QVQLVESGGGLVQAGGSLRLSCAASGFTIYRYAMGWYRQAPGKERELVAAITGGGGSTYYADSVKGRFTISRDNAKNTVYLQMNSLKPEVTAVYYCAVDVYHKGQYRWSYGYWGQGTQVTVSS”, the “polyreactivity (PSR sort gate)” value is recorded as “low polyreactivity”.

With “QVQLVESGGGLVQAGGSLRLSCAASGFTLAGYAMGWYRQAPGKERELVSAITTSGGSTFYADSVKGRFTISRDNAKNTDYLKMNSLKPEDTAVYYCAAAIRTRTSYYRFDYWGQGTQVTVSS”, the “polyreactivity (PSR sort gate)” value is listed as “high polyreactivity”.

As for “QVQLVESGGGLVQAGGSLRLSCAASGFTLANYAMGWYRQAPGKERELVAAIDYSGGGTYYADSVKGRFTISRDNAKNTVYLQMNSLKPEDTAVYYCAARRWSYYSAKYDYWGQGTQVTVSS”, the “polyreactivity (PSR sort gate)” value is “low polyreactivity”.

Regarding “QVQLVESGGGLVQAGGSLRLSCAASGFTLARYAMGWYRPAPGKERELVAALTQSGVSTYYADSVKGRFTISRDNAKNTVYLQMNSLKPEDTAVYYCNALLRRTDYRYTWGYGYWGQGTQVTVSS”, the “polyreactivity (PSR sort gate)” value is listed as “high polyreactivity”.

Turning to “QVQLVESGGGLVQAGGSLRLSCAASGFTLDRYAMGWYRQAPGKERELVAAITQSGVSTYYADSVKGRFTISRDNAKNTVYLQMNSLKPEDTAVYYCNALLRRTDYRYTWGYGYWGQGTQVTVSS”, the “polyreactivity (PSR sort gate)” value is “high polyreactivity”.

Turning to “QVQLVESGGGLVQAGGSLRLSCAASGFTLEYNAMGWYRQAPGKERELVAAIDGDGTTYYADSVKGRFTISRDNAKNTVYLQMNSLKPEDTAVYYCNTRTTPYYAQGITRIEYDYWGQGTQVTVSS”, the “polyreactivity (PSR sort gate)” value was “low polyreactivity”.

In the case of “QVQLVESGGGLVQAGGSLRLSCAASGFTLFWNDMGWYRQAPGKERELVAAITSGDDTYADSVKGRFTISRDNAKNTVYLQMNSLKPEDTAVYYCNKDDPLRNVAQVILYEFYYWGQGTQVTVSS”, the “polyreactivity (PSR sort gate)” value is “low polyreactivity”.

In the case of “QVQLVESGGGLVQAGGSLRLSCAASGFTLGRYAMGWYRQAPGKERELVAAISSGGRTYYADSVKGRFTISRDNAKNTVYLQMNSLKPEDTAVYYCAADPRYISYDYWGQGTQVTVSS”, the “polyreactivity (PSR sort gate)” value is “low polyreactivity”.

Regarding “QVQLVESGGGLVQAGGSLRLSCAASGFTLGSNAMGWYRQAPGKERELVAAISKSGGSTYYADSVKGRFTISRDNAKNTVYLQMNSLKPEDTAVYYCAARYLYQGYRYDYWGQGTQVTVSS”, the “polyreactivity (PSR sort gate)” value is given as “high polyreactivity”.

Take “QVQLVESGGGLVQAGGSLRLSCAASGFTLPVYAMGWYRQAPGKERELVARITWSAGRTYYADSVKGRFTISRDNAKNTGYLQMNSLKPEDTAVYYCAAGPVSQHHSPRPHDYWGQGTQVTVSS”: the “polyreactivity (PSR sort gate)” value is “high polyreactivity”.

In the case of “QVQLVESGGGLVQAGGSLRLSCAASGFTLPVYGMGWYRQAPGQERELVAAISSRGGNTYYADSVKGRFTISRDNAKNTVYLQMNSLKPEDTAVYYCAAGGITYTGDDYWGQGTQVTVSS”, the “polyreactivity (PSR sort gate)” value is on record as “high polyreactivity”.

Turning to “QVQLVESGGGLVQAGGSLRLSCAASGFTLQRYAMGWYRQAPGKEREFVAVITRSGGSTYYADSVKGRFTISRDNAKNSVYLQMNSLKPEDTAVYDCAKREFPTTRNRGRYDYWGQGTQVTVSS”, the “polyreactivity (PSR sort gate)” value is reported as “high polyreactivity”.
